What all share (type): cell-based
One assay relates to SW1222. As to the kind of experiment: MTS viability of siRNA-transfected ASS-positive SW1222 cells treated with ADI-PEG 20. The method, then:
To assess the anti-proliferative effect of ADI-PEG 20 on adherent cells, cells were plated a density of 2×10^3 cells per well in a tissue culture 96-microwell plate and allowed to adhere overnight. The following day, cells were treated with ADI-PEG 20 (DesigneRx Pharmaceuticals, Vacaville, Calif., USA, a subsidiary of Polaris Group, San Diego, Calif., USA) ranging from 0 to 10 mIU ml^−1. After incubation for 120 h, cell viability was determined using (3-(4,5-dimethylthiazol-2-yl)-5-(3-carboxymethoxyphenyl)-2-(4-sulfophenyl)-2H-tetrazolium) (MTS, CellTiter 96 AQueous One Solution, Promega, Madison, Wis., USA), according to the manufacturers protocol. Twenty microliters of MTS reagent was added to the appropriate control and assay wells before the plate was incubated for 2 h at 37° C. and absorbance read at 490 nm. Absolute absorbance for each treatment was determined by subtracting the background MTS absorbance, and the mean and standard deviation was calculated. The effect of the autophagy inhibitor chloroquine (Sigma) on cell proliferation was assessed using the MTS assay.
To further assess the importance of cellular ASS expression in response to treatment with ADI-PEG 20, expression of ASS was silenced through the use of ASS-specific siRNA. Small interfering RNA constructs were obtained from Integrated DNA technologies (IDT, Coralville, Iowa, USA) against the ASS-coding region. […]

Assay [1] deals with non-adherent ASS-positive cells. In words: Total protein proliferation assay, non-adherent cells. The following applies: 0-10 mIU ml^−1, 120 h. The method, then: (§1) To assess the activity of ADI-PEG 20 in non-adherent cells, cells were plated at a density of 1×10^5 cells per well in a tissue culture 24-well plate. Additional media was then added containing ADI-PEG 20 for final concentrations ranging from 0-10 mIU ml^−1. To measure changes in proliferation following incubation with ADI-PEG 20 for 120 h, cells were collected, washed and lysed in RIPA buffer. Total protein for each treatment was then determined using the BSA protein assay as a measure of total cell number. All treatments were performed at least in triplicate.

Assay [2] deals with non-adherent ASS-deficient cells. The description is as above. The following applies: 0-10 mIU ml^−1, 120 h. The method, then: as §1

B1: ADI-PEG 20: arginine deiminase (ADI) formulated with PEG of 20,000 m.w. (protein)
chain: MSVFDSKFNGIHVYSEIGELETVLVHEPGREIDYITPARLDELLFSAILESHDARKEHQSFVKIMKDRGINVVELTDLVAETYDLASKAAKEEFIETFLEETVPVLTEANKEAVRAFLLSKPTHEMVEFMMSGITKYELGVESENELIVDPMPNLYFTRDPFASVGNGVTIHFMRYIVRRRETLFARFVFRNHPKLVKTPWYYDPAMKMSIEGGDVFIYNNETLVVGVSERTDLDTITLLAKNIKANKEVEFKRIVAINVPKWTNLMHLDTWLTMLDKNKFLYSPIANDVFKFWDYDLVNGGAEPQPQLNGLPLDKLLASIINKEPVLIPIGGAGATEMEIARETNFDGTNYLAIKPGLVIGYDRNEKTNAALKAAGITVLPFHGNQLSLGMGNARCMSMPLSRKDVKW
As for B1, the cell viability result in the assay on SW1222 (cells treated with ASS siRNA) was “reduced cell viability”; with SW1222 (control or scrambled siRNA-treated cells), “no decrease in viability”. In addition, the figures for the proliferation entry in assay [1] and in assay [2] were “almost total resistance” and “relative decrease in proliferation”, respectively.

The values above are taken from patent US9333268B2, “Methods of treatment with arginine deiminase” (Polaris Group, priority 2012, dated 2016).
